Results published in US20250019450A1 (DIAGONAL THERAPEUTICS, published 2025).

Molecular target: human IL-12 receptor (IL-12Rβ1 and IL-12Rβ2) on HEK-Blue IL-12 cells (human, UniProt P42701 24-662; Q99665 24-862)
Assay: cell-based or functional assay

human IL-12 receptor (IL-12Rβ1 and IL-12Rβ2) on HEK-Blue IL-12 cells, sequence (Q99665 24-862, chain 2 of 2, other chains not shown): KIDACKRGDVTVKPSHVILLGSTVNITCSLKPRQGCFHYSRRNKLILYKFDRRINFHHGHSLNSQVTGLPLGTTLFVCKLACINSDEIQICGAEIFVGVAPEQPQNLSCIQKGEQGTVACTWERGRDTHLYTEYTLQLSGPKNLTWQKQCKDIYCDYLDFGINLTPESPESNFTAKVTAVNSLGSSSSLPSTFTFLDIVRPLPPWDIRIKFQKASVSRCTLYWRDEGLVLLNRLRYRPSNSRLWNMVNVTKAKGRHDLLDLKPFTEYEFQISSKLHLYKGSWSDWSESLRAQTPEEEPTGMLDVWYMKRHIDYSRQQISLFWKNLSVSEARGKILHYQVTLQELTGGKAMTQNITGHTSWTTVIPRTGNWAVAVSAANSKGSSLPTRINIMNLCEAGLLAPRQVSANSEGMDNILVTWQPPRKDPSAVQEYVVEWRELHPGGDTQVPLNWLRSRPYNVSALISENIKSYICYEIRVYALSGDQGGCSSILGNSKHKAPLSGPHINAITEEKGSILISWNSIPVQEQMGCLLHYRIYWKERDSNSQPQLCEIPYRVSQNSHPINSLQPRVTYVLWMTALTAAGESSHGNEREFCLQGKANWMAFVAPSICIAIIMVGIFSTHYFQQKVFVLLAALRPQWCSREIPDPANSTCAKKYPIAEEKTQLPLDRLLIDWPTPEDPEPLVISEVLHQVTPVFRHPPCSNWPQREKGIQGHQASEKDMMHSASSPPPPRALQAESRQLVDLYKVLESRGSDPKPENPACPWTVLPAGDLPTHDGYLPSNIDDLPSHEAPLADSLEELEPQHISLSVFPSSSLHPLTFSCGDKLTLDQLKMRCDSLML

B1: DGL408 (bispecific antibody, human IgG1, kappa)
heavy 1: not shown
heavy 2: QVQLVESGGGLVQPGGSLRLSCAASGFTFSNYAMSWVRQAPGKGLEWVSAINSDGTSTSYADSVKGQFTISRDNAKNTLYLQMNSLKPEDTAVYYCTKWEGDTDSDYKFKDYWGQGTQVTVEPKSSDKTHTCPPCPAPEAAGAPSVFLFPPKPKDTLMISRTPEVTCVVVDVSHEDPEVKFNWYVDGVEVHNAKTKPREEQYNSTYRVVSVLTVLHQDWLNGKEYKCKVSNKALPAPIEKTISKAKGQPREPQVCTLPPSRDELTKNQVSLSCAVKGFYPSDIAVEWESNGQPENNYKTTPPVLDSDGSFFLVSKLTVDKSRWQQGNVFSCSVMHEALHNRFTQKSLSLSPG
light: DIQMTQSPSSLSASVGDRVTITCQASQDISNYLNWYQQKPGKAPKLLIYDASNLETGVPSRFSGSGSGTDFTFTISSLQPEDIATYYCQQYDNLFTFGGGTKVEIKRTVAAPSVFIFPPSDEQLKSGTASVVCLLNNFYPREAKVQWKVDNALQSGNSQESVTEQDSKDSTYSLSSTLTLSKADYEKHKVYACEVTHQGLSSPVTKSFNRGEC
With B1 the “Max Absorbance” value was 0.17.

B2: DGL465 (bispecific antibody, V domains shown)
V domain 1: QVQLVESGGGLVQAGGSLRLSCAASGRAFSRYSMGWFRQAPGKEREFVAANYWSNGWTDYADTVKGRFSISRDNAKNTVYLQMNSLKPEDTAVYYCAGRSSSIPSADVVGYDYWGQGTQVTVEP
V domain 2: QVQLVESGGGLVQPGGSLRLSCAASGFTFEPYDMSWFRQAPGKGPEWVSAIDKGGGAGATYYADSVKGRFTISRDNAKKTLYLQMKSLKPEDTAVYYCAITAGPYSDSTPRVAYRGEGTQVTVEP
B2 was tested, and the EC50 was over 100 nM and the “Max Absorbance” value was 0.69.

B3: DGL484 (bispecific antibody, V domains shown)
V domain 1: QVQLVESGGGLVQAGGSLRLSCAASARIFNSYAVAWFRQTPGKEREFVASISWSGGSTNYADSVKGRFTISRDNAKNTVFLQMNSLKPADTAVYYCAADRNYYPSVLGKYTYWGQGTQVTVEP
V domain 2: QVQLVESGGGLVQPGGSLRLSCAASGFTFEPYDMSWFRQAPGKGPEWVSAIDKGGGAGATYYADSVKGRFTISRDNAKKTLYLQMKSLKPEDTAVYYCAITAGPYSDSTPRVAYRGEGTQVTVEP
B3 was tested, and the EC50 was 9.7e-09 M (implied) and the “Max Absorbance” value was 0.54.

B4: DGL454 (bispecific antibody, V domains shown)
V domain 1: QVQLQESGGALVQPGGSLRLSCVVSGFTSDYFAIGWFRQAPGKEREGVSCIGSSDGSTIYSDSVKGRFTISRDNAKNTVYLQMNSLKPEDTGVYYCALDRGRRTIIGYACYATMKYWGKGTPVTVEP
V domain 2: QVQLVESGGGLVQPGGSLRLSCAASGFTFEPYDMSWFRQAPGKGPEWVSAIDKGGGAGATYYADSVKGRFTISRDNAKKTLYLQMKSLKPEDTAVYYCAITAGPYSDSTPRVAYRGEGTQVTVEP
With B4 the EC50 was over 100 nM and the “Max Absorbance” value was 0.47.

B5: DGL499 (bispecific antibody, V domains shown)
V domain 1: EVQLVESGGGLVQAGGSLRLSCAASGLTFRNYAMAWFRQAPGKEREFVAGITWGGGLTHYVDSVKGRFTISRDNGKNTVYLQMNSLKSEDTAVYYCAGKTQGSTWYHLTPDGYDYWGQGTQVTVEP
V domain 2: QVQLVESGGGLVQPGGSLRLSCAASGFTFEPYDMSWFRQAPGKGPEWVSAIDKGGGAGATYYADSVKGRFTISRDNAKKTLYLQMKSLKPEDTAVYYCAITAGPYSDSTPRVAYRGEGTQVTVEP
B5 was tested, and the EC50 was 8.1e-09 M (implied) and the “Max Absorbance” value was 0.56.

B6: DGL464 (bispecific antibody, V domains shown)
V domain 1: QVQLVESGGGLVQAGGSLRLSCAASGRAFSRYSMGWFRQAPGKEREFVAANYWSNGWTDYADTVKGRFSISRDNAKNTVYLQMNSLKPEDTAVYYCAGRSSSIPSADVVGYDYWGQGTQVTVEP
V domain 2: QVQLVESGGGLVQPGGSLRLSCAASGFTFSNYAMSWVRQAPGKGLEWVSAINSDGTSTSYADSVKGQFTISRDNAKNTLYLQMNSLKPEDTAVYYCTKWEGDTDSDYKFKDYWGQGTQVTVEP
B6 was tested, and the EC50 was over 100 nM and the “Max Absorbance” value was 0.47.

B7: DGL571 (bispecific antibody, V domains shown)
V domain 1: QVQLVESGGGLVQAGGSLRLSCAASRSISSFNEMAWYRQAPGEQRELVATIVSTVGFTNYADSVKGRFTISRDNAKNTVYLQMNSLKAEDTAVYYCNARRISTDYWGQGTQVTVEP
V domain 2: QVQLVESGGGLVQPGGSLRLSCAASGFTFSNYAMSWIRQGPERGFEWVSRINSGGGTTSYADSVKGRFTISRDNAKNTLYLQMNSLKPEDTAVYYCAKHSHPDYSSNYYRPGQGTQVTVEP
B7 was tested, and the EC50 was over 100 nM and the “Max Absorbance” value was 0.64.

B8: DGL575 (bispecific antibody, V domains shown)
V domain 1: QVQLVESGGGLVQAGGSLRLSCAASRSISSFNEMAWYRQAPGEQRELVATIVSTVGFTNYADSVKGRFTISRDNAKNTVYLQMNSLKAEDTAVYYCNARRISTDYWGQGTQVTVEP
V domain 2: QVQLQESGPGLVKPSQTLSLTCTVSGGSITTNYYYWSWIRQPPGKGLEWMGAIAYSGSTYYSPSLKSRTSISRDTSKNQFTLQLSSVTPEDTAVYYCASGINFYSNYPTLNEYDYWGQGTQVTVEP
In the case of B8, the EC50 is reported as over 100 nM and the “Max Absorbance” value is reported as 0.43.

B9: DGL441 (bispecific antibody, human IgG1, lambda)
heavy 1: not shown
heavy 2: EVQLVESGGGLVQPGGSLRLSCAASGFTFSTYDMHWVRQATGKGLEWVSLIDTAGDTYYPDSVKGRFTISRENAKNSLYLQMNSLRAGDTAVYYCAREGWGYFDYWGQGALVTVSSASTKGPSVFPLAPSSKSTSGGTAALGCLVKDYFPEPVTVSWNSGALTSGVHTFPAVLQSSGLYSLSSVVTVPSSSLGTQTYICNVNHKPSNTKVDKKVEPKSCDKTHTCPPCPAPEAAGAPSVFLFPPKPKDTLMISRTPEVTCVVVDVSHEDPEVKFNWYVDGVEVHNAKTKPREEQYNSTYRVVSVLTVLHQDWLNGKEYKCKVSNKALPAPIEKTISKAKGQPREPQVCTLPPSRDELTKNQVSLSCAVKGFYPSDIAVEWESNGQPENNYKTTPPVLDSDGSFFLVSKLTVDKSRWQQGNVFSCSVMHEALHNRFTQKSLSLSPG
light: QSALTQPPSVSGSPGQSVTISCTGTSSDVGSYNRVSWYQQPPGTAPKLMIYEVSNRPSGVPDRFSGSKSGNTASLTISGLQAEDEADYYCSLYTGSSTVVFGGGTKVTVLGQPKAAPSVTLFPPSSEELQANKATLVCLISDFYPGAVTVAWKADSSPVKAGVETTTPSKQSNNKYAASSYLSLTPEQWKSHRSYSCQVTHEGSTVEKTVAPTECS
B9 was tested, and the EC50 was 4e-11 M (implied) and the “Max Absorbance” value was 0.45.

B10: DGL584 (bispecific antibody, V domains shown)
V domain 1: QVQLQESGGGLVQAGGSLRLSCAASGSIASINAMGWYRQAPGKQRDFVARIQLSGSTNYAHSVRGRFTISRDNAKNTVYLQMNNLKPEDTAVYVCAASNTGSLYGLRNYWGQGTQVTVEP
V domain 2: QVQLVESGGGLVQPGGSLRLSCAASGFTFSSKAMHWFRQAPGKGLEWVSSINSGGAITYYKDSVKGRFTVSRDNAKNILYLEMNSLKPEDTALYYCATDTDGRTRGQGTQVTVEP
B10 was tested, and the EC50 was over 100 nM and the “Max Absorbance” value was 0.58.

B11: DGL527 (bispecific antibody, V domains shown)
V domain 1: EVQLVESGGGLVQPGGSLTLSCTASGFRFSDRSMGWYRQAPGKQRELVAAITVGGSTNYADSVKGRFTISRDNAKNTVYLQMNSLKPEDTALYYCNRRYPPDDYWGQGTQVTVEP
V domain 2: QVQLVESGGGLVRPGGSLRLSCAASGFTFSSNGMHWFRQAPGKGLEWVSSIGSGGTSIYYADSVKGRFTISRDNAKNTLYLQMNSLKSDDTAVYYCSKEVTGATRGQGTQVTVEP
B11 was tested, and the EC50 was over 100 nM and the “Max Absorbance” value was 0.54.

B12: DGL545 (bispecific antibody, V domains shown)
V domain 1: QVQLVESGGGAVQAGGSLRLSCAASGLTSRHYVMAWFRQAPGIEREFVASIWWGGSTYYADSVKDRFTISRDNAENTVYLQMNSLKPEDTAVYRCAVGTKIGTMGPRYDYWGQGTQVTVEP
V domain 2: QVQLVESGGGLVQAGGSLRLSCAASGRTFSSYAMGWFRQAPGKEREFVSAISWSGLSTYYVESVQGRFTISRDNAKNTVYLQMNSLKPEDTAVYYCAASRIYTNYVARSYEYDDWGQGTQVTVEP
B12 was tested, and the EC50 was over 100 nM and the “Max Absorbance” value was 0.59.

B13: DGL524 (bispecific antibody, V domains shown)
V domain 1: EVQLVESGGGLVQPGGSLRLFCAASRSIFNINIMGWYRQAPGKQREWLASITSGGSTFYADSVKDRFTISRDSVKNTVYLQMNSLKPEDTAAYYCNRYRSVPLNTVYPWGQGTLVTVEP
V domain 2: QVQLVESGGGLVQAGGSLRLSCAASGRIFSAYRMGWFRQAPGKEREFVAGITWRGQTTYYAASVKGRFTISKDNAKKTVYLQMNSLKPEETAVYYCAVETNGLGRWDRPSEYDYWGQGTQVTVEP
In the case of B13, the EC50 is reported as 4.4e-10 M (implied) and the “Max Absorbance” value is reported as 0.58.

B14: DGL462 (bispecific antibody, V domains shown)
V domain 1: EVQLVESGGGLVQPGGSLRLSCAASGFTFQNYAMSWLRKAPGEGLEWVSVINSGGGSTLYADSVKGRFTISRDNAKNTLYLQMHSLKSEDTAVYFCAKRRDDSTFGSLLYTHRGQGTQVTVEP
V domain 2: QVQLVESGGGLVQAGGSLRLSCAASGRIFSAYRMGWFRQAPGKEREFVAGITWRGQTTYYAASVKGRFTISKDNAKKTVYLQMNSLKPEETAVYYCAVETNGLGRWDRPSEYDYWGQGTQVTVEP
B14 was tested, and the EC50 was 1.2e-09 M (implied) and the “Max Absorbance” value was 0.52.

B15: DGL537 (bispecific antibody, V domains shown)
V domain 1: QVQLVESGGGLVQAGGSLRLSCLASGRTSNYFMGWFRQAPGKEREFVAAISRSGGGTWYADSVKGRFAISRDNAKNTVNLQMNSLKREDTAVYYCAADRRTGTSVYTVDEYDYWGQGTQVTVEP
V domain 2: QVQLVESGGGLVQAGGSLRLSCAASGRIFSAYRMGWFRQAPGKEREFVAGITWRGQTTYYAASVKGRFTISKDNAKKTVYLQMNSLKPEETAVYYCAVETNGLGRWDRPSEYDYWGQGTQVTVEP
For B15, the EC50 was 5.9e-10 M (implied) and the “Max Absorbance” value was 0.55.

B16: DGL599 (bispecific antibody, human IgG1, V domains shown)
V domain 1: EVQLVESGGGLVQAGGSLRLSCAASGSKFSFNAMGWYRQTPGKQRELVAIIINGDMINYADSVKGRFTISRDNAKNTMYLQMNSLKPEDTAVYYCKMTRYVYDYWGQGTQVTVEP
V domain 2: QVQLVQSGAEVKKPGASVRVSCKASGYTFTSYYIHWVRQAPGQGLEWMGIINPSGGSTSYAQKFQGRVTMTRDTSTTTVYMELSSLRSEDTAVYYCAKSNWAYAFDIWGQGTMVTVSS
B16 was tested, and the EC50 was over 100 nM and the “Max Absorbance” value was 0.48.

B17: DGL398 (bispecific antibody, human IgG1, kappa)
heavy 1: not shown
heavy 2: QVQLVESGGGLVQAGGSLRLSCAASGRTFSSYAMGWFRQAPGKEREFVSAISWSGLSTYYVESVQGRFTISRDNAKNTVYLQMNSLKPEDTAVYYCAASRIYTNYVARSYEYDDWGQGTQVTVEPKSSDKTHTCPPCPAPEAAGAPSVFLFPPKPKDTLMISRTPEVTCVVVDVSHEDPEVKFNWYVDGVEVHNAKTKPREEQYNSTYRVVSVLTVLHQDWLNGKEYKCKVSNKALPAPIEKTISKAKGQPREPQVCTLPPSRDELTKNQVSLSCAVKGFYPSDIAVEWESNGQPENNYKTTPPVLDSDGSFFLVSKLTVDKSRWQQGNVFSCSVMHEALHNRFTQKSLSLSPG
light: DIQLTQSPSFLSASVGDRVTITCRASQGISSYLAWYQQQPGKPPKLLIYAASTLHSGVPSRFSGSGSGTEFTLTISSLQPEDFATYYCQQLNRYPYTCGQGTKLEIKRTVAAPSVFIFPPSDEQLKSGTASVVCLLNNFYPREAKVQWKVDNALQSGNSQESVTEQDSKDSTYSLSSTLTLSKADYEKHKVYACEVTHQGLSSPVTKSFNRGEC
For B17, the “Max Absorbance” value was 0.17.
